Source: US10100114B2, “Antibodies specific for TROP-2 and their uses” (RINAT NEUROSCIENCE CORP., priority 2011, dated 2018)
Positions count from the first letter of the chain named. Names and notes keep the numbering of the source.

B1: h7E6: humanized anti-Trop-2 antibody, VL SEQ ID NO: 3, VH SEQ ID NO: 4 (antibody, V domains shown)
VH: QVQLQESGPGLVKPSETLSLTCTVSGGSISSYGVHWIRQPPGKGLEWIGVIWTGGSTDYNSALMSRVTISVDTSKNQFSLKLSSVTAADTAVYYCARDGDYDRYTMDYWGQGTLVTVSS
VL: DIVMTQSPDSLAVSLGERATINCRASKSVSTSGYSYMHWYQQKPGQPPKLLIYLASNLESGVPDRFSGSGSGTDFTLTISSLQAEDVAVYYCQHSRELPYTFGQGTKLEIK
B2: h7E6_L: humanized anti-Trop-2 antibody comprising SEQ ID NOs: 4 and 6 (antibody, V domains shown)
VH: B1 VH
VL: B1 VL with G33L
B3: h7E6_SVGL: humanized anti-Trop-2 antibody, VL SEQ ID NO: 6, VH SEQ ID NO: 5 (antibody, V domains shown)
VH: B1 VH with G54S, S56V, S65G
VL: B1 VL with G33L
B4: h6G11: humanized anti-Trop-2 antibody, VL SEQ ID NO: 10, VH SEQ ID NO: 11 (antibody, V domains shown)
VH: QVQLVQSGAEVKKPGASVKVSCKASGYTFTSYWINWVRQAPGQGLEWMGNIYPSDSYSNYNQKFKDRVTMTRDTSTSTVYMELSSLRSEDTAVYYCARGSSFDYWGQGTLVTVSS
VL: EIVLTQSPATLSLSPGERATLSCRASQTIGTSIHWYQQKPGQAPRLLIYYASESISGIPARFSGSGSGTDFTLTISSLEPEDFAVYYCQQSNSWPFTFGQGTKLEIK
B5: h6G11_FKG_SF: humanized anti-Trop-2 antibody, VL SEQ ID NO: 12, VH SEQ ID NO: 13 (antibody, V domains shown)
VH: B4 VH with Y52F, Q62K, S101G
VL: B4 VL with Q89S, N92F
B6: h7E6_N: humanized anti-Trop-2 7E6 antibody, presumably VH SEQ ID NO: 4 with VL_N SEQ ID NO: 7 (antibody, V domains shown)
VH: B1 VH
VL: B1 VL with G33N
B7: h7E6_SVGN: humanized anti-Trop-2 antibody, VL SEQ ID NO: 7, VH SEQ ID NO: 5 (antibody, V domains shown)
VH: B1 VH with G54S, S56V, S65G
VL: B1 VL with G33N
B8: h7E6-WT-TG1-vcMMAD: h7E6-WT hIgG1 with TG1 tag conjugated with AcLys-vcMMAD (conjugate)
VH: B1 VH
VL: B1 VL
B9: h7E6-L-TG1-vcMMAD: h7E6_L hIgG1 with TG1 tag conjugated with AcLys-vcMMAD (conjugate)
VH: B1 VH
VL: B1 VL with G33L
B10: h7E6-N-TG1-vcMMAD: h7E6_N hIgG1 with TG1 tag conjugated with AcLys-vcMMAD (conjugate)
VH: B1 VH
VL: B1 VL with G33N
B11: h7E6-SVGL-TG1-vcMMAD: h7E6_SVGL hIgG1 with TG1 tag conjugated with AcLys-vcMMAD (conjugate)
VH: B1 VH with G54S, S56V, S65G
VL: B1 VL with G33L
B12: h7E6-SVGN-TG1-vcMMAD: h7E6_SVGN hIgG1 with TG1 tag conjugated with AcLys-vcMMAD (conjugate)
VH: B1 VH with G54S, S56V, S65G
VL: B1 VL with G33N
B13: h7E6SVG-LCQ04/K222R-vc0101: h7E6SVG K222R with light chain LCQ04 tag conjugated with AcLys-vc-PABC-0101 (conjugate)
VH: B1 VH with G54S, S56V, S65G
VL: B1 VL

The molecules below were run against T1, human Trop-2-hFc (Homo sapiens, UniProt P09758) (assay: Biacore SPR affinity of chimeric and humanized 7E6 Fab, human Trop-2). Details: recombinant Fab fragments injected over captured human Trop-2-hFc.
T1 construct: Monomeric Trop-2 extracellular domain prepared from papain digestion of Trop-2-Fc fusion protein
T1 sequence (P09758 27-274 limits assumed): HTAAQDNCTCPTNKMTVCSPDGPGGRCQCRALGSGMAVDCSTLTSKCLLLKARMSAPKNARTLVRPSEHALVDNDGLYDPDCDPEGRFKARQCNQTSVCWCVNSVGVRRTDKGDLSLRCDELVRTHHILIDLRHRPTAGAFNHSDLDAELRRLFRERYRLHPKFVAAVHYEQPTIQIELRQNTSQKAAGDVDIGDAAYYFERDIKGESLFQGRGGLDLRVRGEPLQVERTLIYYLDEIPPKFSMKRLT
Assay type: binding
Description: (§1) The human Trop-2-hFc or cynomolgus monkey Trop-2-hFc proteins were captured on the CM5 EDA chip 37 sensor surface coupled with anti-human Fc.

Molecule	ka [M⁻¹ s⁻¹]	kd [s⁻¹]
B1	139000	0.00294
B2	130000	0.00015
B3	131000	3.27e-05

The molecules below were run on cynomolgus monkey Trop-2-hFc (assay: Biacore SPR affinity of chimeric and humanized 7E6 Fab, cynomolgus Trop-2). Details: recombinant Fab fragments injected over captured cynomolgus monkey Trop-2-hFc.
Assay type: binding
Description: as §1

Molecule	ka [M⁻¹ s⁻¹]	kd [s⁻¹]
B1	144000	0.00635
B2	126000	0.000335
B3	130000	7.42e-05

Each molecule was assayed against T2, Human Trop-2-mFc (Homo sapiens, UniProt P09758) (assay: Biacore SPR affinity of humanized 6G11 Fab). Details: Fab fragments injected over captured human Trop-2-mFc.
T2 construct: Monomeric Trop-2 extracellular domain prepared from papain digestion of Trop-2-Fc fusion protein
T2 sequence (P09758 27-274 limits assumed): T1 sequence (P09758 27-274 limits assumed)
Assay type: binding
Method: The affinities of humanized 6G11 antibodies were measured on a surface plasmon resonance Biacore™ 2000 biosensor equipped with a research-grade CM5 sensor chip (Biacore™ AB, Uppsala, Sweden—now GE Healthcare). Human Trop-2-mFc protein was captured on the CM5 chip coupled with anti-mouse Fc. Human 6G11_WT or Human 6G11_FKG_SF chimeric Fab fragments were injected as 3 fold dilution series.

Molecule	ka [M⁻¹ s⁻¹]	kd [s⁻¹]
B4	360000	0.0096
B5	640000	0.00038

These molecules were tested on SW620 (Trop-2 −) cells (assay: Flow cytometry binding, SW620 cells). Details: Table 10, 300,000 cells, 1 ug antibody.
Assay type: cell-based
Method: For A431 cell staining, 200,000 cells were incubated with 0.5 ug antibody in 100 uL binding buffer (PBS (Phosphate Buffered Saline)+0.5% BSA (Bovine Serum Albumin)), followed by incubation with Dylight488-conjugated goat anti-human (Fab′)2-specific secondary antibody from Jackson immunoresearch Laboratories (West Grove, Pa.). For Colo205 and SW620 cells, 300,000 cells were used with 1 ug of primary antibody, followed by AlexaFluor 647 anti-human (Fab′)2-specific secondary antibody from Jackson immunoresearch Laboratories (West Grove, Pa.).
Similar to Example 7a), binding of chimeric mouse and humanized anti-Trop-2 6G11 antibodies (expressed in human IgG1 subtype) were assessed on Trop-2 expressing (A431 and Colo205) and non-expressing (SW620) cells by flow cytometry. 300,000 cells were used with 1 ug of primary antibody, followed by AlexaFluor 647 anti-human (Fab′)2-specific secondary antibody.

Molecule	% positive [%]	MFI
B1	2.1	143
B2	2.5	158
B3	2.6	135
B6	2.3	151
B7	2.5	140

Same assay, conditions: Table 11, 300,000 cells, 1 ug antibody

Molecule	% positive [%]	MFI
B4	3.9	154
B5	2.5	157

What follows are molecules tested on SW620 cells (Trop-2 non-expressing) (assay: Cytotoxicity of ADCs (CellTiter-Glo), SW620). Details: Table 12; SW620 (Trop-2−); 96 hours after treatment.
Assay type: cell-based
Method: Target expressing (A431, BxPC3, CAPAN-2 and Colo205) or non-expressing (SW620) cells were seeded on white walled clear bottom plates at 2000 cells/well for 24 hours before treatment. Cells were treated with 4 fold serially diluted antibody-drug conjugates in triplicates. Cell viability was determined by CellTiter-Glo® Luminescent Cell Viability Assay 96 (Promega, Madison Wis.) 96 hours after treatment. Relative cell viability was determined as percentage of untreated control. IC50 was calculated by Prism software.
2-methylalanyl-N-[(3R,4S,5S)-3-methoxy-1-{(2S)-2-[(1R,2R)-1-methoxy-2-methyl-3-oxo-3-{[(1S)-2-phenyl-1-(1,3-thiazol-2-yl)ethyl]amino}propyl]pyrrolidin-1-yl}-5-methyl-1-oxoheptan-4-yl]-N-methyl-L-valinamide is a novel auristatin, as described in U.S. Application Nos. 61/561,255 and 61/676,423. Method of conjugating Trop-2 antibodies using transglutaminase tags is described in Example 9. Target expressing or non-expressing (SW620) cells were seeded on white walled clear bottom plates at 2000 (A431, BxPC3, NCI-H292, NCI-H1650, MDA-MB-468 and SW620), 2500 (Calu-3) or 3000 (OVCAR3 and SKBR3) cells per well for 24 hours before treatment. Cells were treated with 4 fold serially diluted antibody-drug conjugates in triplicates. Cell viability was determined by CellTiter-Glo® Luminescent Cell Viability Assay 96 (Promega, Madison, Wis.) 96 hours after treatment. Relative cell viability was determined as percentage of untreated control. IC50 was calculated by GraphPad Prism 5 software and expressed as concentration (nM) of total Ab.

Molecule	Ab-IC50 [mg/L]
B8	10.330
B9	8.535
B10	11.150
B11	10.800
B12	10.410

Same assay, conditions: Table 12; SW620 (Trop-2−); 96 hours after treatment; read-out: Ab-IC50

Molecule	IC50 [µM]
B8	0.0689
B9	0.0569
B10	0.0743
B11	0.072
B12	0.0694

Same assay, conditions: Table 13; SW620, Trop2 expression −; 96 hours; concentration of total Ab

Molecule	IC50 [µM]
B13	> 0.267

These molecules were tested on BxPC3 xenograft (assay: In vivo efficacy of humanized Trop-2 ADCs, pancreatic tumor BxPC3 xenograft model). Details: single dose, tail vein; FIGS. 9A-9C.
Design: species or system CB17/SCID mice
Method: In vivo efficacy studies of Trop-2 ADCs were performed with target-expressing BxPC3 xenograft model. Two million BxPC3 pancreatic cancer cells were implanted subcutaneously into 5-8 weeks old CB17/SCID mice until the tumor sizes reached between 300-400 mm^3. […] Tumor volume was measured once a week by a Caliper device and calculated with the following formula: Tumor volume=(length×width^2)/2. Studies were terminated before their tumor volumes reached 2000 mm^3.

Molecule	tumor response, BxPC3 xenograft
B13	tumor regression
